Experimental data taken from patent US20260265360A1 (NEURACLE SCIENCE, published 2026).
One block for each binder: values may come before it. Ends that are not written are not given here.

Key:
FAM19A5 mutant M7 = target: T1, FAM19A5 mutant M7 (human); assay: ELISA on phage-expressed FAM19A5 mutants M1-M8
T1 chain: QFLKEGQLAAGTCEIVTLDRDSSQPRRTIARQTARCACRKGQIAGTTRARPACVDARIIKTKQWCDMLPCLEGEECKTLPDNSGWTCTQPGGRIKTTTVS

FAM19A5 mutant M8 = target: T2, FAM19A5 mutant M8 (human); assay: ELISA on phage-expressed FAM19A5 mutants M1-M8
T2 chain: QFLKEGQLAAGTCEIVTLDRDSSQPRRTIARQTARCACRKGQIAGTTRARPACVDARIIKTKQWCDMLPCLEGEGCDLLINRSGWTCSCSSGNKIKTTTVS

FAM19A5 mutant M2 = target: T3, FAM19A5 mutant M2 (human); assay: ELISA on phage-expressed FAM19A5 mutants M1-M8
T3 chain: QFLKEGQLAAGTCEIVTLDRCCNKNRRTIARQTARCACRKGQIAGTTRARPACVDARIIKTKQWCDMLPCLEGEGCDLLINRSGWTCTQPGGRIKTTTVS

[1] = target: T4, FAM19A5 epitope fragment F2, BSA-conjugated (human, conjugated to BSA); assay: ELISA, plate-coated BSA-conjugated FAM19A5 fragments F1-F6
T4 peptide: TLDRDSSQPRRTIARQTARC
Experimental: (§1) Binding of the different anti-FAM19A5 antibodies to the BSA-conjugated peptide fragments F1-F6 was determined by Western blot analysis or ELISA assay. For the Western blot analysis, BSA-conjugated FAM19A5 fragments F1-F6 were separated by SDS polyacrylamide gel electrophoresis and transferred to a nitrocellulose membrane by the standard procedure. The membrane was incubated with the anti-FAM19A5 antibody (e.g., 1-65, […], 1-65-scFv-rabbit Fc-SSS), and the antigen-antibody complexes were detected with the appropriate secondary antibody conjugated with horse-radish peroxidase (anti-rabbit IgG (Fc specific)-HRP, 1:4000 dilution). For the ELISA assay, the following protocol was used. FAM19A5 fragment F1-F6 (diluted to 1 μg/mL in 50 mM carbonate buffer (Biosesang) or to 20 μg/mL for high concentration analysis) were used to coat the wells of 96-well immuno plates (Thermo Scientific) (100 μL/well) overnight at 4° C. and then subsequently washed twice in 1×PBS. The plates were then blocked with the blocking buffer (100 μL/well) for 1 hour at room temperature. During the 1-hour incubation, the relavant anti-FAM19A5 antibodies were diluted to 1 μg/mL (or 20 μg/mL for high concentration analysis) in the diluent buffer. Once the plates were washed (2× using 1×PBS), the diluted anti-FAM19A5 antibodies were added to the appropriate wells, and the plates were incubated at room temperature for 1 hour. The plates were subsequently washed for a total of five times using the washing buffer. Next, the ODP substrate (prepared by dissolving one ODP tablet (O-phenylenediamine Dihydrochloride, Thermo) into 9 mL of sterilized deionized water and 1 mL of 10× stable Peroxide Stable buffer (Theromo)) was added to each of the wells, and the color change reaction was allowed to occur for 10 minutes. This reaction was stopped by adding 100 μL of 2N H2SO4 (Daejung) to the wells. The absorption value of each of the wells was detected at 492 nm using a 96-well microplate reader (Molecular Device).
(§2) As shown in FIGS. 19 and 20A, the anti-FAM19A5 antibody 1-65 bound strongly to fragment F5 as measured by both Western Blot and ELISA assay, respectively.

[2] = target: T5, Mutant F5 peptide F5-1 (#1) (human); assay: ELISA, plate-coated F5 mutant peptides
T5 construct: already contained in the entry; also called mutant peptide #1
T5 peptide: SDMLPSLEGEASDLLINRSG

[3] = target: T6, Mutant F5 peptide F5-2 (#2) (human); assay: ELISA, plate-coated F5 mutant peptides
T6 construct: already contained in the entry; also called mutant peptide #2
T6 peptide: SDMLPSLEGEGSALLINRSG

[4] = target: T7, Mutant F5 peptide F5-3 (#3) (human); assay: ELISA, plate-coated F5 mutant peptides
T7 construct: already contained in the entry; also called mutant peptide #3
T7 peptide: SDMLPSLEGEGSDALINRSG

[5] = target: T8, Mutant F5 peptide F5-4 (#4) (human); assay: ELISA, plate-coated F5 mutant peptides
T8 construct: already contained in the entry; also called mutant peptide #4
T8 peptide: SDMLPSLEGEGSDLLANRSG

[6] = target: T9, Mutant F5 peptide F5-5 (#5) (human); assay: ELISA, plate-coated F5 mutant peptides
T9 construct: already contained in the entry; also called mutant peptide #5
T9 peptide: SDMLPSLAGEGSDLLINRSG

[7] = target: T10, Mutant F5 peptide F5-6 (#6) (human); assay: ELISA, plate-coated F5 mutant peptides
T10 construct: already contained in the entry; also called mutant peptide #6
T10 peptide: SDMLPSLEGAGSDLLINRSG

[8] = target: T11, Mutant F5 peptide F5-7 (#7) (human); assay: ELISA, plate-coated F5 mutant peptides
T11 construct: already contained in the entry; also called mutant peptide #7
T11 peptide: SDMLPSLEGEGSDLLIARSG

[9] = target: T12, Mutant F5 peptide F5-8 (#8) (human); assay: ELISA, plate-coated F5 mutant peptides
T12 construct: already contained in the entry; also called mutant peptide #8
T12 peptide: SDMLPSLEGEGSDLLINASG

FAM19A5 mutant M6 = target: T13, FAM19A5 mutant M6 (human); assay: ELISA on phage-expressed FAM19A5 mutants M1-M8
T13 chain: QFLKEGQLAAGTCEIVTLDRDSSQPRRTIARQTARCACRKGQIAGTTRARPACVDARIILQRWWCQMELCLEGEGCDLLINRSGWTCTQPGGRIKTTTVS

[10] = target: T14, FAM19A5 epitope fragment F1, BSA-conjugated (human, also: conjugated to BSA); assay: ELISA, plate-coated BSA-conjugated FAM19A5 fragments F1-F6
T14 construct: which number belongs to which fragment is not spelled out
T14 peptide: QLAAGTCEIVTLDR
Experimental: as §1, §2

[11] = target: T15, FAM19A5 epitope fragment F3, BSA-conjugated (human, conjugated to BSA); assay: as above
T15 peptide: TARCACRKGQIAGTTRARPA
Experimental: as §1, §2

[12] = target: T16, FAM19A5 epitope fragment F6, BSA-conjugated (human, conjugated to BSA); assay: as above
T16 peptide: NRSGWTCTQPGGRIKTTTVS
Experimental: as §1, §2

- binding result (FAM19A5 mutant M7): binds
- binding result (FAM19A5 mutant M8): no binding
B1: Anti-FAM19A5 antibody 13F7 (antibody, V domains shown)
VH: QVQLQEWGAGLLKPSETLSLTCAINAESFNGYSWTWIRQTPGKGLEWIGEISHFGSANYNPSLKSRATISADKSKNQFSLKLTSVTAVDTAVYYCARALRGTYSRFYYGMDVWGQGTTVTVSS
VL: DIVMTQTPLSLPVAPGEPASISCRSSQSLLHSNGYNYLDWYVQKPGQPPQLLIYLGSNRASGVPDRFSGSGSGTDFTLKISRVEAEDVGVYYCMQARQTPLTFGGGTKVEIK

- binding result (FAM19A5 mutant M2): no binding
- binding result [1]: binds
B2: Anti-FAM19A5 antibody 3-2 (antibody, V domains shown)
VH: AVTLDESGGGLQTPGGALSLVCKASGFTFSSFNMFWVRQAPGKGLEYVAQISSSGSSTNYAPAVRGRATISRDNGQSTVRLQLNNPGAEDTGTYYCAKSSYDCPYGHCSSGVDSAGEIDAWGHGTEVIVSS
VL: ALTQPSSVSANPGETVKITCSGGGSYAGSYYYGWYQQKAPGSAPVTLIYESNKRPSDIPSRFSGSTSGSTATLTITGVQADDEAIYYCGSWDSSNGGIFGAGTTLTVL
notes: also called h3-2; m3-2

- binding result (FAM19A5 mutant M8): no binding
B3: Anti-FAM19A5 antibody P2-A03 (antibody, V domains shown)
VH: QSVEESGGRLVTPGTPLTLTCTVSGFSLNNYDMSWVRQAPGKGLEYIGFMDTDGSAYYATWAKGRFTISRTSTTVDLKMTSPTTEDTATYFCARRGSSYYGGIDIWGPGTPVTVSL
VL: ELDLTQTPASVSEPVGGTVTIKCQASQSIGGNLAWYQQKPGQPPKLLIYRASTLASGVPSRFKGSGSGTDFTLTISDLECADAATYYCQSPAYDPAAYVGNAFGGGTELEIL

- binding result [2]: binds
- binding result [3]: no binding
- binding result [4]: no binding
- binding result [5]: no binding
- binding result [6]: binds
- binding result [7]: binds
- binding result [8]: binds
- binding result [9]: no binding
- binding result (FAM19A5 mutant M6): no binding
- binding result (FAM19A5 mutant M7): no binding
- binding result (FAM19A5 mutant M8): no binding
B4: Anti-FAM19A5 antibody 1-65 (antibody, V domains shown)
VH: AVTLDESGGGLQTPGGALSLVCKASGFTFSSYQMGWVRQAPGKGLEWVGVINKSGSDTSYGSAVKGRATISRDNGQSTVRLQLNNLRAEDTGTYFCAKGSASYITAATIDAWGHGTEVIVSS
VL: ALTQPSSVSANPGETVKITCSGGGSSGYGYGWYQQKSPSSAPLTVIYWNDKRPSDIPSRFSGSKSGSTHTLTITGVQAEDEAVYFCGNDDYSSDSGYVGVFGAGTTLTVL
notes: also called monoclonal antibody clone 1-65

- binding result (FAM19A5 mutant M6): no binding
- binding result (FAM19A5 mutant M7): binds
- binding result (FAM19A5 mutant M8): no binding
B5: Anti-FAM19A5 antibody 13B4 (antibody, V domains shown)
VH: QVQLQESGPGLVKPSGTLSLNCAVSGGSISSSNWWSWVRQPPGKGLEWIGEIYHGGTTNYNPSLKGRVTMSVDKTKNQFSLRLSSVTAVDTAVYYCARWQLVGGLDVWGQGTTVTVSS
VL: SYELTQPLSVSVSPGQTASITCSGDKLGNVYASWYQQKPGQSPTLVIYQDNKRPSGIPERFSGSNSGKTATLTISGTQALDEADYYCQAWDSSTAVFGGGTKLTVL

- binding result [2]: no binding
- binding result [3]: binds
- binding result [4]: binds
- binding result [5]: binds
- binding result [6]: binds
- binding result [7]: no binding
- binding result [8]: binds
- binding result [9]: no binding
- binding result (FAM19A5 mutant M6): no binding
- binding result [10]: no binding
- binding result [1]: no binding
- binding result [11]: no binding
- binding result [12]: no binding
B6: Anti-FAM19A5 antibody P2-C12 (antibody, V domains shown)
VH: QSLEESGGRLVTPGTPLTLTCTVSGFSLSTYAVTWVRQAPGKGLEWIGYINWRGGTSYANWAKGRFTISKTSSTTVDLKMTSPTTEDTATYFCARDASSGAAFGSYGMDPWGPGTLVTVSS
VL: ELDMTQTPSSVSAAVGGTVTIKCQASQSISSYLSWYQQKPGQPPKLLIYEASKLASGVPSRFSGSGYGTEFTLTISDLECADAATYYCQQGYSSTNVWNAFGGGTNVEIK
